Literature values, collected in article PMC4927088.

Biological target: LPL (UniProt P11151)
Chain of UniProt P11151 (P11151 29-478): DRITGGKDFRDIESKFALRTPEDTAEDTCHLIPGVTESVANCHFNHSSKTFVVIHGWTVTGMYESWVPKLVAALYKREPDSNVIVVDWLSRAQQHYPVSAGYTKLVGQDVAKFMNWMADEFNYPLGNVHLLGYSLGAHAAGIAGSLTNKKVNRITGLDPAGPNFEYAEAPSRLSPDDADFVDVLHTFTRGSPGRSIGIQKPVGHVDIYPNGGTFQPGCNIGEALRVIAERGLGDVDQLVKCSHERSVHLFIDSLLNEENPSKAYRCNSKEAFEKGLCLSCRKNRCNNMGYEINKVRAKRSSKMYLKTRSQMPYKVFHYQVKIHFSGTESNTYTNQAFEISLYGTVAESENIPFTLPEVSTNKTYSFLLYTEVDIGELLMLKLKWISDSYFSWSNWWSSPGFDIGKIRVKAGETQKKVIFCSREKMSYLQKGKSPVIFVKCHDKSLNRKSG

Substance: GPIHBP1 (from UniProt Q8IV16)
- Kd: 0.025 µM
